Columns and labels:
Test in all cases: cell-based or functional assay
HIV Env, isolate 1245045 = HIV Env, isolate 1245045 (HIV)
[1] = molecular target: HIV Env, isolate 19157834_V1 (HIV)
[2] = molecular target: HIV Env, isolate 20258279_V2 (HIV)
[3] = molecular target: HIV Env, isolate 20927783 (HIV)
[4] = molecular target: HIV Env, isolate 21283649 (HIV)
[5] = molecular target: HIV Env, isolate 18814602_H8_F3 (HIV)
[6] = molecular target: HIV Env, isolate 19707346_E8_C6 (HIV)
[7] = molecular target: HIV Env, isolate 20286961_C1_H8 (HIV)
[8] = molecular target: HIV Env, isolate 20883229_C9_H6 (HIV)
[9] = molecular target: HIV Env, isolate 21502011_F12_E2 (HIV)
[10] = molecular target: HIV Env, isolate 541-F1_A7_2 (HIV)
[11] = molecular target: HIV Env, isolate 569-F1_37_10 (HIV)
[12] = molecular target: HIV Env, isolate CAP136.1.16_E6_1 (HIV)
[13] = molecular target: HIV Env, isolate CAP174.1.06_F3_1B (HIV)
[14] = molecular target: HIV Env, isolate TRP363.2.00_10_3 (HIV)
[15] = molecular target: HIV Env, isolate CT140_140_B6 (HIV)
[16] = molecular target: HIV Env, isolate Ko426_T78_10 (HIV)
[17] = molecular target: HIV Env, isolate Ko870_C2_10 (HIV)
[18] = molecular target: HIV Env, isolate CA392_H2_6 (HIV)
[19] = molecular target: HIV Env, isolate CA146_H3_3 (HIV)
[20] = molecular target: HIV Env, isolate CAP304.2.00_F6.6 (HIV)
[21] = molecular target: HIV Env, isolate CAP330.2.00_F2.41 (HIV)
[22] = molecular target: HIV Env, isolate 20417927.07 (HIV)
[23] = molecular target: HIV Env, isolate SO607_B6.9 (HIV)
[24] = molecular target: HIV Env, isolate Ce1172_H1 (HIV)
[25] = molecular target: HIV Env, isolate Ce703010054_2A2 (HIV)
HIV Env, isolate Du422.1 = HIV Env, isolate Du422.1 (HIV)
[26] = molecular target: HIV Env, isolate ZM214M.PL15 (HIV)
[27] = molecular target: HIV Env, isolate ZM233M.PB6 (HIV)
[28] = molecular target: HIV Env, isolate CAP244.2.00.D3 (HIV)
[29] = molecular target: HIV Env, isolate 0984.v2.c2 (HIV)
[30] = molecular target: HIV Env, isolate 6631.v3.c10 (HIV)
[31] = molecular target: HIV Env, isolate 3426.v5.c17 (HIV)
[32] = molecular target: HIV Env, isolate Ce703010131_1E2 (HIV)
[33] = molecular target: HIV Env, isolate Ce0665_F2 (HIV)
[34] = molecular target: HIV Env, isolate Ce2052_G10 (HIV)

B1: ePGDM9 (antibody, V domains shown)
VH: QAQLVQSGPEVRKPGTSVKVSCKNPGNTLTTYDLHWVRQVPGQGLQWMGWISHEGDKKVIVERFKAKVTIDWDRSTNTAYLQLSGLTSEDTAVYYCAKGSKHRLRDYALYDEDGALNWAVDVDYLANLEFWGQGTAVTVSS
VL: DIVLTQSPLSLSVTPGESASISCKSSQSLIHGDRNNYLAWYVQKPGRSPQLLIDLASERASGVPDRFSGSGSRKDFTLKISRVETEDVGTYYCMQGRESPWTFGQGTKVDIK
- IC50 (HIV Env, isolate 1245045): 0.002 µg/mL
- IC80 (HIV Env, isolate 1245045): 0.006 µg/mL
- IC50 [1]: 31.7 µg/mL
- IC80 [1]: > 50 µg/mL
- IC50 [2]: > 50 µg/mL
- IC80 [2]: > 50 µg/mL
- IC50 [3]: 0.005 µg/mL
- IC80 [3]: 0.017 µg/mL
- IC50 [4]: 1.55 µg/mL
- IC80 [4]: > 50 µg/mL
- IC50 [5]: < 0.0006 µg/mL
- IC80 [5]: 0.002 µg/mL
- IC50 [6]: 0.005 µg/mL
- IC80 [6]: 0.014 µg/mL
- IC50 [7]: 0.023 µg/mL
- IC80 [7]: > 50 µg/mL
- IC50 [8]: > 50 µg/mL
- IC80 [8]: > 50 µg/mL
- IC50 [9]: > 50 µg/mL
- IC80 [9]: > 50 µg/mL
- IC50 [10]: 0.005 µg/mL
- IC80 [10]: 0.02 µg/mL
- IC50 [11]: > 50 µg/mL
- IC80 [11]: > 50 µg/mL
- IC50 [12]: > 50 µg/mL
- IC80 [12]: > 50 µg/mL
- IC50 [13]: 12.6 µg/mL
- IC80 [13]: > 50 µg/mL
- IC50 [14]: 1.81 µg/mL
- IC80 [14]: > 50 µg/mL
- IC50 [15]: 0.248 µg/mL
- IC80 [15]: 1.83 µg/mL
- IC50 [16]: > 50 µg/mL
- IC80 [16]: > 50 µg/mL
- IC50 [17]: 0.001 µg/mL
- IC80 [17]: 0.021 µg/mL
- IC50 [18]: 0.032 µg/mL
- IC80 [18]: 0.129 µg/mL
- IC50 [19]: > 50 µg/mL
- IC80 [19]: > 50 µg/mL
- IC50 [20]: 0.002 µg/mL
- IC80 [20]: 0.013 µg/mL
- IC50 [21]: < 0.0006 µg/mL
- IC80 [21]: 0.004 µg/mL
- IC50 [22]: 0.03 µg/mL
- IC80 [22]: 0.679 µg/mL
- IC50 [23]: 29.5 µg/mL
- IC80 [23]: > 50 µg/mL
- IC50 [24]: 0.007 µg/mL
- IC80 [24]: 0.02 µg/mL
- IC50 [25]: 0.005 µg/mL
- IC80 [25]: 0.027 µg/mL
- IC50 (HIV Env, isolate Du422.1): > 50 µg/mL
- IC80 (HIV Env, isolate Du422.1): > 50 µg/mL
- IC50 [26]: > 50 µg/mL
- IC80 [26]: > 50 µg/mL
- IC50 [27]: < 0.0006 µg/mL
- IC80 [27]: 0.001 µg/mL
- IC50 [28]: 2.87 µg/mL
- IC80 [28]: 19.9 µg/mL
- IC50 [29]: 2.81 µg/mL
- IC80 [29]: > 50 µg/mL
- IC50 [30]: > 50 µg/mL
- IC80 [30]: > 50 µg/mL
- IC50 [31]: < 0.0006 µg/mL
- IC80 [31]: 0.002 µg/mL
- IC50 [32]: < 0.0006 µg/mL
- IC80 [32]: 0.004 µg/mL
- IC50 [33]: 22.4 µg/mL
- IC80 [33]: > 50 µg/mL
- IC50 [34]: 0.001 µg/mL
- IC80 [34]: 0.005 µg/mL
